System: MS2 coat protein
Test: apparent KD of MS2 coat protein; designed switch direction (-1 OFF switch, 1 ON switch): 1; higher = weaker reporter binding
Settings: Eterna round: R95
Method in brief: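 Normalised cluster fluorescence was curve-fitted, and each design's median over clusters is its apparent KD. Before this, SNAP-549-labelled MS2 coat protein was titrated from 0.7 or 1.5 nM, doubling to 3 µM, over RNA switches transcribed on Illumina chips by stalled E. coli RNA polymerase. Titrations had no input, 200 uM small-molecule ligand, or an oligonucleotide input, and steps lasted 0.8–1.5 h (lowest) to 10–20 min (highest).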

[1] = input ligand: microRNA oligo, concentration not stated

| Sequence | apparent KD of MS2 coat protein (input ligand: FMN 200 uM) | apparent KD of MS2 coat protein [1] | apparent KD of MS2 coat protein (input ligand: none) |
| --- | --- | --- | --- |
| AGUCCAGCGAAAGCUGGACAAAAGCAUGUACAUGAGGAUCACCCAUGUUCAUGUACAAGCUUUUUGUUCGUCUUAAA [JL mod - D95 - 14] (puzzle: Sensor for hsa-mir-208a) | 314 nM | 13.4 nM | 601 nM |
| AGUCCAGCGAAAGCUGGACAAAAGCAUGUACAUGAGGAUCACCCAUGUUCAUGUACAGGCUUUUUGCUCGUCUUAAA [JL mod - D95 - 8] (puzzle: Sensor for hsa-mir-208a) | 243 nM | 12.6 nM | 175 nM |
| AGUCCAGCGAAAGCUGGACAAAAGCAUGUACAUGAGGAUCACCCAUGUUCAUGUAUAAGCUUUUUGCUCGUCUUAAA [JL mod - D95 - 12] (puzzle: Sensor for hsa-mir-208a) | 18.1 nM | 9.2 nM | 15.9 nM |
| AGUCCAGCGAAAGCUGGACAAAAGCAUGUACAUGAGGAUCACCCAUGUUCAUGUAUAAGCUUUUUGCUCGUUUUAAA [JL mod - D95 - 17] (puzzle: Sensor for hsa-mir-208a) | 16.2 nM | 10.2 nM | 15.9 nM |
| AGUCCAGCGAAAGCUGGACAAAAGCAUGUACAUGAGGAUCACCCAUGUUUAUGUACAAGCUUUUUGCUCGUCUUAAA [JL mod - D95 - 11] (puzzle: Sensor for hsa-mir-208a) | 274 nM | 14.2 nM | 300 nM |
| AUAAAACAUGAGGAUCACCCAUGUCAACAAAGUCGAGGAUAUGGGCAAAUAAAAUAAGAAUCAGAAGGCGAAUAAU [salish99_ss1_r3_030] (puzzle: Same State 1) | 265 nM | 330 nM | 404 nM |
| AUAAAACAUGAGGAUCACCCAUGUCAACAAAGUCGAGGAUAUGGGCAAAUAAAAUUAGAACCAGAAGGCGAAUAAU [salish99_ss1_r3_020] (puzzle: Same State 1) | 34.4 nM | 330 nM | 379 nM |
| AUAAAACAUGAGGAUCACCCAUGUCAACAAAGUCGAGGAUAUGGGCAAAUAAAUUAAGAACCAGAAGGCGAAUAAU [salish99_ss1_r3_021] (puzzle: Same State 1) | 36.9 nM | 236 nM | 313 nM |
| AUAAAACAUGAGGAUCACCCAUGUCAACAAAGUCGAGGAUAUGGUCAAAUAAAAUAAGAACCAGAAGGCGAAUAAU [salish99_ss1_r3_029] (puzzle: Same State 1) | 17.8 nM | 26.3 nM | 25.3 nM |
| AUAAAACAUGAGGAUCACCCAUGUCAAUAAAGUCGAGGAUAUGGGCAAAUAAAAUAAGAACCAGAAGGCGAAUAAU [salish99_ss1_r3_042] (puzzle: Same State 1) | 33.2 nM | 217 nM | 206 nM |
| AUAAGGCAAGCUUUUUUCUCGUAGUGUAAACAUGAGGAUCACCCAUGUGCCCACCCUGGAUCUUUGAAUCGCAGAAC [Dianancete] (puzzle: Sensor for hsa-mir-208a) | 26.7 nM | 16.6 nM | 27.3 nM |
| AUAAGGCAAGCUUUUUUCUCGUAGUGUAAACAUGAGGAUCACCCAUGUGCCCACCCUGGAUCUUUGGAUCGCAGAAC [Sobiisarre] (puzzle: Sensor for hsa-mir-208a) | 20.3 nM | 15.2 nM | 22.7 nM |
| AUAAGUUCGAUGCUCGUCUCUCCGUACAAACAUGAGGAUCACCCAUGUGGCCGGGAAGUAGCCCGACCAGUAUGGCC [Tearbeorve] (puzzle: Sensor for hsa-mir-208a) | 38.6 nM | 27.1 nM | 45.2 nM |
| AUAAGUUCGAUGCUCGUCUCUCCGUACAAACAUGAGGAUCACCCAUGUGGUCGGGAAGUAGCCCGGCCAGUAUGACC [Arbesoce] (puzzle: Sensor for hsa-mir-208a) | 31.2 nM | 22 nM | 29 nM |
| AUAAGUUUGAUGCUCGUCUCUCCGUACAGACAUGAGGAUCACCCAUGUAGUCAGGAAGUAGCCUGGCCAGUAUGGCC [Berave] (puzzle: Sensor for hsa-mir-208a) | 27.5 nM | 16.6 nM | 31.1 nM |

From the supplement of paper PMC9170038
